What all share (experiment): SPR
For orientation: SPR reads the build-up and loss of mass on a sensor chip optically.

The target in assay [1] is T1, Recombinant cynomolgus monkey PD-1-His (Sino Biological catalog #90311-C08H).
T1 chain: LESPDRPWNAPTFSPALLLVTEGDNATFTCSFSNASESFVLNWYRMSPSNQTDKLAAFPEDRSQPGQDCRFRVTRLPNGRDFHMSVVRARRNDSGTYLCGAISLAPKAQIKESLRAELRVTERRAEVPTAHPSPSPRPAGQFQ

The target of assay [2] is Recombinant human PD-1-His (Sino Biological catalog #10377-H08H-B) (UniProt Q15116 25-167).
Assay [3] has as its target T2, Recombinant rhesus monkey PD-1-His (Sino Biological catalog #90305-K08H).
T2 chain: T1 chain with A10P, Q67R, R75Q

Numbering of substitutions follows the chain as printed.

The text below walks through data of patent US20230235059A1 (published 2023).

B1: HPD-BB9 (antibody, V domains shown)
VH: QVQLVQSGAEVKKPGASVKVSCKASGFRLTTNGISWVRQAPGQGLEWMGWISAGGGPTNYAQKLQGRVTMTTDTSTSTAYMELRSLRSDDTAVYYCAKGLYGTKDAWGQGTLVTVSS
VL: QSVLTQPPSVSEVPGQRVTISCSGGGSNIGSNAVNWYQHFPGKAPKLLIYYNDLLPSGVSDRFSASKSGTSASLAISGLRSEDEADYYCAAWDDNLSAYVFATGTKVTVL
What is called Kd is the equilibrium constant for the complex coming apart. Take B1: the Kd came to 35.2 nM in assay [1], 12.2 nM in assay [2] and 3.33 nM in assay [3].
